From IntAct's records for PubMed 19804848

B1: Syntaxin-binding protein 2 (Homo sapiens), Q15833 (parent)
chain: MAPSGLKAVVGEKILSGVIRSVKKDGEWKVLIMDHPSMRILSSCCKMSDILAEGITIVEDINKRREPIPSLEAIYLLSPTEKSVQALIKDFQGTPTFTYKAAHIFFTDTCPEPLFSELGRSRLAKVVKTLKEIHLAFLPYEAQVFSLDAPHSTYNLYCPFRAEERTRQLEVLAQQIATLCATLQEYPAIRYRKGPEDTAQLAHAVLAKLNAFKADTPSLGEGPEKTRSQLLIMDRAADPVSPLLHELTFQAMAYDLLDIEQDTYRYETTGLSEAREKAVLLDEDDDLWVELRHMHIADVSKKVTELLRTFCESKRLTTDKANIKDLSQILKKMPQYQKELNKYSTHLHLADDCMKHFKGSVEKLCSVEQDLAMGSDAEGEKIKDSMKLIVPVLLDAAVPAYDKIRVLLLYILLRNGVSEENLAKLIQHANVQAHSSLIRNLEQLGGTVTNPGGSGTSSRLEPRERMEPTYQLSRWTPVIKDVMEDAVEDRLDRNLWPFVSDPAPTASSQAAVSARFGHWHKNKAGIEARAGPRLIVYVMGGVAMSEMRAAYEVTRATEGKWEVLIGSSHILTPTRFLDDLKALDKKLEDIALP
partner: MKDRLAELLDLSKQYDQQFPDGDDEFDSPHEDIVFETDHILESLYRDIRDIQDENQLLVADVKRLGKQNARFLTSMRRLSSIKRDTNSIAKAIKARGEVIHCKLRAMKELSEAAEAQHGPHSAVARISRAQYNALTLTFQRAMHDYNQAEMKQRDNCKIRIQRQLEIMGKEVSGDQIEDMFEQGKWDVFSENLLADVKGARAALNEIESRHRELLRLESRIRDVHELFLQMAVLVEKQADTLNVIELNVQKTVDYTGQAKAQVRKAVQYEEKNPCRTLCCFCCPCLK

Variants of: B1
Settings: with stx11_human STX11, O75558

effect of a mutation on the interaction	Variant
disrupting interaction strength	R292H
disrupting interaction strength	R405W

Continued, variant first:

Variant	effect of a mutation on the interaction
R405E	disrupting interaction strength
P477L	disrupting interaction strength
